B1: myc-tagged Gα12 Gln^229Leu (myc-Gα12^QL) [not stated] / GST fusion of protein phosphatase-5 [not stated] (parent)
chain 1: MSGVVRTLSRCLLPAEAGARERRAGAARDAEREARRRSRDIDALLARERRAVRRLVKILLLGAGESGKSTFLKQMRIIHGREFDQKALLEFRDTIFDNILKGSRVLVDARDKLGIPWQHSENEKHGMFLMAFENKAGLPVEPATFQLYVPALSALWRDSGIREAFSRRSEFQLGESVKYFLDNLDRIGQLNYFPSKQDILLARKATKGIVEHDFVIKKIPFKMVDVGGLRSQRQKWFQCFDGITSILFMVSSSEYDQVLMEDRRTNRLVESMNIFETIVNNKLFFNVSIILFLNKMDLLVEKVKSVSIKKHFPDFKGDPHRLEDVQRYLVQCFDRKRRNRSKPLFHHFTTAIDTENIRFVFHAVKDTILQENLKDIMLQ
chain 2: MAMAEGERTECAEPPRDEPPADGALKRAEELKTQANDYFKAKDYENAIKFYSQAIELNPSNAIYYGNRSLAYLRTECYGYALGDATRAIELDKKYIKGYYRRAASNMALGKFRAALRDYETVVKVKPHDKDAKMKYQECNKIVKQKAFERAIAGDEHKRSVVDSLDIESMTIEDEYSGPKLEDGKVTISFMKELMQWYKDQKKLHRKCAYQILVQVKEVLSKLSTLVETTLKETEKITVCGDTHGQFYDLLNIFELNGLPSETNPYIFNGDFVDRGSFSVEVILTLFGFKLLYPDHFHLLRGNHETDNMNQIYGFEGEVKAKYTAQMYELFSEVFEWLPLAQCINGKVLIMHGGLFSEDGVTLDDIRKIERNRQPPDSGPMCDLLWSDPQPQNGRSISKRGVSCQFGPDVTKAFLEENNLDYIIRSHEVKAEGYEVAHGGRCVTVFSAPNYCDQMGNKASYIHLQGSDLRPQFHQFTAVPHPNVKPMAYANTLLQLGMM

Variants of: B1
Assay: GST pull-down (co-precipitation), immunoblot pulldown:load ratio
Conditions: with GST fusion of protein phosphatase-5; grade: ++; mean of two or more trials; parent: 100

Row | percent of parent (% of myc-Gα12QL pulldown:load ratio) | Variant
1 | > 60 | chain 1 MSGVVRTLSRCLLPAEAGARERRAGAARDAEREARRRSRDIDALLARERRAVRRLVKILLLGAGESGKSTFLKQMRIIHGREFDQKALLEFRDTIFDNILKGSRVLVDARDKLGIPWQHSENEKHGMFLMAFENKAGLPVEPATFQLYVPALSALWRDSGIREAFSRRSEFQLGESVKYFLDNLDRIGQLNYFPSKQDILLARKATKGIVEHDFVIKKIPFKMVDVGGLRSQRQKWFQCFDGITSILFMVSSSEYDQVLMEDRRTNRLVESMNIFETIVNNKLFFNVSIILFLNKMDLLVEKVKSVSIKKHFPDFKGDPHRLEDVQRYLVQCFDRKRRNNAAIRSHHFTTAIDTENIRFVFHAVKDTILQENLKDIMLQ [chain 1 R340N S341A K342A P343I L344R F345S]
2 | > 60 | chain 1 MSGVVRTLSRCLLPAEAGARERRAGAARDAEREARRRSRDIDALLARERRAVRRLVKILLLGAGESGKSTFLKQMRIIHGREFDQKALLEFRDTIFDNILKGSRVLVDARDKLGIPWQHSENEKHGMFLMAFENKAGLPVEPATFQLYVPALSALWRDSGIREAFSRRSEFQLGESVKYFLDNLDRIGQLNYFPSKQDILLARKATKGIVEHDFVIKKIPFKMVDVGGLRSQRQKWFQCFDGITSILFMVSSSEYDQVLMEDRRTNRLVESMNIFETIVNNKLFFNVSIILFLNKMDLLVEKVKSVSIKKHFPDFNAAIRSLEDVQRYLVQCFDRKRRNRSKPLFHHFTTAIDTENIRFVFHAVKDTILQENLKDIMLQ [chain 1 K316N G317A D318A P319I H320R R321S]
3 | > 60 | chain 1 MSGVVRTLSRCLLPAEAGARERRAGAARDAEREARRRSRDIDALLARERRAVRRLVKILLLGAGESGKSTFLKQMRIIHGREFDQKALLEFRDTIFDNILKGSRVLVDARDKLGIPWQHSENEKHGMFLMAFENKAGLPVEPATFQLYVPALSALWRDSGIREAFSRRSEFQLGESVKYFLDNLDRIGQLNYFPSKQDILLARKATKGIVEHDFVIKKIPFKMVDVGGLRSQRQKWFQCFDGITSILFMVSSSEYDQVLMEDRRTNRLVESMNIFETIVNNKLFFNVSIILFLNKMDLLVEKVKSVSIKKHFPDFKGDPHRLEDVQRYLVQCFDRKRRNRSKPLFHHFTTANAAIRSRFVFHAVKDTILQENLKDIMLQ [chain 1 I352N D353A T354A E355I N356R I357S]
4 | > 60 | chain 1 MSGVVRTLSRCLLPAEAGARERRAGAANAAIRSARRRSRDIDALLARERRAVRRLVKILLLGAGESGKSTFLKQMRIIHGREFDQKALLEFRDTIFDNILKGSRVLVDARDKLGIPWQHSENEKHGMFLMAFENKAGLPVEPATFQLYVPALSALWRDSGIREAFSRRSEFQLGESVKYFLDNLDRIGQLNYFPSKQDILLARKATKGIVEHDFVIKKIPFKMVDVGGLRSQRQKWFQCFDGITSILFMVSSSEYDQVLMEDRRTNRLVESMNIFETIVNNKLFFNVSIILFLNKMDLLVEKVKSVSIKKHFPDFKGDPHRLEDVQRYLVQCFDRKRRNRSKPLFHHFTTAIDTENIRFVFHAVKDTILQENLKDIMLQ [chain 1 R28N D29A E31I E33S]
5 | > 60 | chain 1 MSGVVRTLSRCLLPAEAGARERRAGAARDAEREARRRSRDIDALLARERRAVRRLVKILLLGAGESGKSTFLKQMRIIHGREFDQKALLEFRDTIFDNILKGSRVLVDARDKLGIPWQHSENEKHGMFLMAFENKAGLPVEPATFQLYVPALSALWRDSGIREAFSRRSEFQLGESVKYFLDNLDRIGQLNYFPSKQDILLARKATKGIVEHDFVIKKIPFKMVDVGGLRSQRQKWFQCFDGITSILFMVSSSEYDQVLMEDRRTNRLVESMNIFETIVNNKLFFNVSIILFLNKMDLLVEKVKSVSIKKHFPDFKGDPHRLEDVQRYLVQCFDRKRRNRSKPLFNAAIRSIDTENIRFVFHAVKDTILQENLKDIMLQ [chain 1 H346N H347A F348A T349I T350R A351S]
6 | > 60 | chain 1 MSGVVRTLSRCLLPAEAGARERRAGAARDAEREARRRSRDIDALLARERRANAAIRSILLLGAGESGKSTFLKQMRIIHGREFDQKALLEFRDTIFDNILKGSRVLVDARDKLGIPWQHSENEKHGMFLMAFENKAGLPVEPATFQLYVPALSALWRDSGIREAFSRRSEFQLGESVKYFLDNLDRIGQLNYFPSKQDILLARKATKGIVEHDFVIKKIPFKMVDVGGLRSQRQKWFQCFDGITSILFMVSSSEYDQVLMEDRRTNRLVESMNIFETIVNNKLFFNVSIILFLNKMDLLVEKVKSVSIKKHFPDFKGDPHRLEDVQRYLVQCFDRKRRNRSKPLFHHFTTAIDTENIRFVFHAVKDTILQENLKDIMLQ [chain 1 V52N R53A R54A L55I V56R K57S]
7 | > 60 | chain 1 MSGVVRTLSRCLLPAEAGARERRAGAARDAEREARRRSRDIDALLARERRAVRRLVKILLLGAGESGKSTFLKQMRIIHGREFDQKALLEFRDTIFDNILKGSRVLVDARDKLGIPWQHSENEKHGMFLMAFENKAGLPVEPATFQLYVPALSALWRDSGIREAFSRRSEFQLGESVKYFLDNLDRIGQLNYFPSKQDILLARKATKGIVEHDFVIKKIPFKMVDVGGLRSQRQKWFQCFDGITSILFMVSSSEYDQVLMEDRRTNRLVESMNIFETIVNNKLFFNVSIILFLNKMDLLVEKVKSVSIKKHFPDFKGDPHRLEDVQRYLVQCFDRKRRNRSKPLFHHFTTAIDTENINAAIRSVKDTILQENLKDIMLQ [chain 1 R358N F359A V360A F361I H362R A363S]

Reference: article PMC3636079, “Determinants at the N- and C-termini of Gα12 required for activation of Rho-mediated signaling” (Journal of Molecular Signaling, 2013)
